Results as given in paper PMC7617963 (Current biology : CB, 2024).

Molecular target: the molecule itself
Test: cross-linking; BS3 cross-linker mixed 1:1 (w/w) with protein at 1 mg/ml, 30 minutes at room temperature, quenched with 200 mM ammonium bicarbonate, resolved by SDS-PAGE

B1: CENP-E_(2452-2598) (domain or fragment, human, UniProt Q02224-1 2452-2598, looked up)
chain: PYKEEIEDLKMKLVKIDLEKMKNAKEFEKEISATKATVEYQKEVIRLLRENLRRSQQAQDTSVISEHTDPQPSNKPLTCGGGSGIVQNTKALILKSEHIRLEKEISKLKQQNEQLIKQKNELLSNNQHLSNEVKTWKERTLKREAHK
notes: CENP-E (centromere-associated protein E), residues 2452-2598; cell constructs were generated from CENP-E transcript variant 1 (NM_001813.2); cloned into pET3aTr for expression; The purification says that the His tag was cleaved with 3C protease, yet the crystallisation and cross-linking methods call the protein His6-CENP-E_(2452-2598); also called His6-CENP-E_(2452-2598); minimal corona-targeting …
B1 was tested, and the “stoichiometry N” value was 2.
